Tested on: HpyCH4V restriction endonuclease (Helicobacter pylori CH4)
Experiment: cleavage_in_vitro
Conditions: fragments of 576, 498, 441, 335, 315, 312, 296, 244, 205 bp and 12 smaller than 200 bp

## pBR322 DNA
  number of cleavage fragments: 21 fragments

Reference: patent US6133009
